T1: human [1-157]-mouse chimeric EL with C2 tag (human; mouse) (UniProt Q9WVG5)
T1 sequence: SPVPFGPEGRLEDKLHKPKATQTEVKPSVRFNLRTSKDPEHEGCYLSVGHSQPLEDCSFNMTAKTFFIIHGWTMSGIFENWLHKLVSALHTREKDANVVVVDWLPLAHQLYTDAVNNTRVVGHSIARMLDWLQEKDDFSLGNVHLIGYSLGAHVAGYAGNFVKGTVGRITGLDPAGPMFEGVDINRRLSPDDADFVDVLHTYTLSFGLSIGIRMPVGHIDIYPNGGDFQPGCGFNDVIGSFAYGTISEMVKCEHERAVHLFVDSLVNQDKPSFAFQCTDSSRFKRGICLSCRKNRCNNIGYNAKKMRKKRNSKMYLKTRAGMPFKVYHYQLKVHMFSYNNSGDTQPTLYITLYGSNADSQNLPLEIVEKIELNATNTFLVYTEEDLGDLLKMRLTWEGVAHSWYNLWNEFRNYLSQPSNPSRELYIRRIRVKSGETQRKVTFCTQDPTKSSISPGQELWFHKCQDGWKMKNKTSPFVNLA

T2: human [202-500]-mouse chimeric EL with C2 tag (mouse; human) (UniProt Q9WVG5)
T2 sequence: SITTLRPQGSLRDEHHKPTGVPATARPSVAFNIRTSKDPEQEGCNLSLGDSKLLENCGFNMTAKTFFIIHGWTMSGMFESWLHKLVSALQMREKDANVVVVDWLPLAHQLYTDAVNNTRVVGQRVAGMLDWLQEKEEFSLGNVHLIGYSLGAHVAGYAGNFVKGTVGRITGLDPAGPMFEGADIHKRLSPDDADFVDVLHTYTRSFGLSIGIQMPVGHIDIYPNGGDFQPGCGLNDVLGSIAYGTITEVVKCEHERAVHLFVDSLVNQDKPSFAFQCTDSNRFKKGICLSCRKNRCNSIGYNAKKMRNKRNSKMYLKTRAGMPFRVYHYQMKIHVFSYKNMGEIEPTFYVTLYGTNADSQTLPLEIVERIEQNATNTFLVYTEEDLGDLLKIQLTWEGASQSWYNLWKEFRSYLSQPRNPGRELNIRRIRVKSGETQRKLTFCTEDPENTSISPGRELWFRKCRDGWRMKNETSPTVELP

T3: human [1-305]-mouse chimeric EL with C2 tag (human; mouse) (UniProt Q9WVG5)
T3 sequence: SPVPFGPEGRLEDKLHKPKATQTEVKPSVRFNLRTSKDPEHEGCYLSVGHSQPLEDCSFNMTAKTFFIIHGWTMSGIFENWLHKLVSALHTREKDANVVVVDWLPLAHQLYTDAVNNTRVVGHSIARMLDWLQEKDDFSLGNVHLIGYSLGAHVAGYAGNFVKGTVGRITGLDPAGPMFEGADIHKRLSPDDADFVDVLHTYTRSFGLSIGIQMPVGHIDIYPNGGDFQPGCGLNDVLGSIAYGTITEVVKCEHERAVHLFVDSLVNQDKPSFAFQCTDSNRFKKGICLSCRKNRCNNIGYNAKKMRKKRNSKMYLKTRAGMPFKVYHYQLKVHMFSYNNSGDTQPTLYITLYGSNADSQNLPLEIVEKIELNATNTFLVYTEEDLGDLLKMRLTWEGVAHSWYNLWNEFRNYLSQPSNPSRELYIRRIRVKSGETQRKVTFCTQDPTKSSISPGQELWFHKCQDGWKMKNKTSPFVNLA


target: T1, human [1-157]-mouse chimeric EL with C2 tag (human; mouse); test: ELISA: antibody captured on anti-mouse IgG-Fc plate, C2-tagged EL heparin extract added, anti-C2-tag detection, A450 (Example 8)

Row | Binder | EC50 (read off the curve) [ng/mL]
1 | 13B3 antibody (antibody, V domains shown) VH: EVQLQQSGPELLKPGASVKISCKASGYTFTEYTMHWVKQSHGKSLEWIGSINPYYGGTSYNEKFKDKATLTVDKSSNTAYMEFRSLTSEDCAVYYCARYGNYVGYFDYWGQGTTLTVSS VL: ENVLTQSPAIMSASLGEKVTMSCRASSSVHYMYWYQQKSDASPKLWIYYTSNLAPGVPDRFSGSGSGNSYSLTISSMEGEDAATYYCQQFTSSPYTFGGGTKLEIK | 4
2 | 7D4 antibody (antibody, V domains shown) VH: QIQLVQSGPELKKPGETVKISCKASGYTFTNYGMNWVKQAPGKDLKWMGWINTYSGVPTYADDFKGRFAFSLETSASTAYLQINNLKNEDTATYFCARFSYYGRHYFDYWGQGTTLTVSS VL: DIVLTQSPASLAVSLGQRATISCKASQSVDYDGDSYMNWYQQKPGQPPQLLIYAASNLGSGIPARFSGSGSGTDFTLNIHPVEEEDAATYYCHQSTDDPPWTFGGGTKLEIK | 6
3 | 14A1 antibody (antibody, V domains shown) VH: QIQLVQSGPELKKPGETVKISCKASGYTFTNYGMNWVKQAPGKGLKWMGWINTYSGVPTYADDFKGRFAFSLETSASTAYLQINNFKNEDTATYFCARFSYYGRHYFDYWGQGTALTASS VL: DIVLTQSPASLAVSLGQRATISCKASQSVDYDGDSYMNWYQQKPGQPPKLLIYAASNLKSGIPARFSGSGSGTDFTLNIHPVEEEDAATYYCQQTTDDPPWTFGGGTKLEIK | 7

Further lines, results first:

Row | EC50 (read off the curve) [ng/mL] | Binder
4 | 4 | 23H8 antibody (antibody, V domains shown) VH: EVQLQQSGPELLKPGASVKISCKASGYTFTDNTIHWVKQSHGKSLEWIGHINPYYGGTNNNEKFKDKATLTVDKSSSTAYMELRSLTSEDSAIYYCARKGIYYSSPFDYWGQGTTLTVSS VL: DIQMTQTTSSLSASLGDRVTISCRASQDINNYLNWYQQKPDGTVKLLISYTSKLHSGVPSRFSGSGSGTDYSLTISNLEREDFATYFCQQGNTLPFTFGSGTNLEIK
5 | 4 | 55A1 antibody (antibody, V domains shown) VH: QIHLVQSGPELKKPGETVKISCKASGYTFTNYGMNWVKQAPGKGLKWMGWINTYSGVPTYAGDFKGRFAFSLETSASTAYLQINNLKNEDTATYFCARRGYYGRRYFDVWGTGTTVTVSS VL: DIVLTQSPASLAVSLGQRATISCKASQSVDYDVDSYMHWYQQKPGQPPKLLIYAASNLASGIPARFSGGGSGTDFTLNIHPVEEEDVATYYCQQTIEDPPTFGGGTKLEIK
6 | 6 | 53A11 antibody (antibody, V domains shown) VH: EVQLQQSGPELLKPGASVKISCKASGYTFTDYTMHWVKQSHGKSLEWIGGINPYYGGTTYNEKFKDKATLTVDKSSSTAYMELRSLTSEDSAVYYCAKGDYYGGSYNYWGQGTTLTVSS VL: DIVLTQSLATLSVTPGDSVSLSCRASQDISNSLHWYQQKSHESPRLLIKYASQSISGIPSRFSGSGSGTDFTLSINSVETEDFGMYFCQQSNSWPYTFGGGTKLEIK

target: T2, human [202-500]-mouse chimeric EL with C2 tag (mouse; human); test: as above

Row | EC50 (read off the curve) [ng/mL] | Binder
7 | 20 | 14E1 antibody (antibody, V domains shown) VH: QVQLQQSGAELVKPGASVRLSCKASGYTFTKYTIHWVKQRSGQGLEWIGWFYPGSDSIKYNEKFKDKATLTADKSSRTVYMELSRLTSEDSAVYFCARHEEYTNSLAYWGQGTLVTVSA VL: DIQMTQTTSSLSASLGDRVTISCRASQDISNYLNWYQQQPDGTVKLLIYYTSRLHSGVPSRFSGSGSGTDYSLTISNLEQEDIATYFCQQGYTLPWTFGGGTNLEIK
8 | 4 | 16B3 antibody (antibody, V domains shown) VH: DVKLVESGGGLVQPGGSLKLSCTASGFTFSGYTMSWVRQTPEKRLELVAEISFARDRAFYPDTVKGRFTISRDNAKNTLYLQMSSLKSEDTAMYYCTRLGGRNHDYWYFDVWGTGTTVTVSS VL: DIVLTQSPTSLAVSPGQRATISCRASESVEYYGTSLMQWYQQKPGQRPQLLIYAASNVESGVPARFSGSGSGTDFSLNIHPVEEDDIAVYFCQQSWKVPFTFGSGTKLEIK
9 | 8 | 16E7 antibody (antibody, V domains shown) VH: EVKLVESGGGLVQPGGSLKLSCAASGFTFSSYTMSWVRQTPEKRLELVAEISFTRSRAFYPDTVKGRFTISRDNAKNTLYLQMSSLKSEDTAMYYCARLGGNNYDYWYFDVWGTGTTVTVSS VL: DIVLTQSPTSLAVSLGQRATISCRASESVEYYGTSLMQWYQQKPGQRPKLLIYAASNVESGVPARFSGSGSGTDFSLNIHPVEEDDIAMYFCQQSWKVPFTFGSGTKLEIK

target: T3, human [1-305]-mouse chimeric EL with C2 tag (human; mouse); test: as above

Row | EC50 (read off the curve) [ng/mL] | Binder
10 | 6 | 19E7 antibody (antibody, V domains shown) VH: QVQLQQPGSVLVRPGASVKLSCKASGYTFTTYWMHWVKQRPGQGLEWIGEIHPYSGNNNNNEKFKGKATLTVDTSSSTAYVDLSRLTSEDSAVYYCARYDSNYVFAYWGQGTLVTVSA VL: QIVLTQSPAIMSASPGEGVTITCSASSSVSYMHWFQQKPGTSPKLWIYSTSNLASGVPARFSGSGSGTSYSLTISRMEAEDAATYYCQQRDSYLTFGSGTKLEVK

Reference: US20160009819A1
